Test results from IntAct's records for PubMed 31515488.

B1: U2 small nuclear ribonucleoprotein A' (Homo sapiens), P09661 (parent)
chain: MVKLTAELIEQAAQYTNAVRDRELDLRGYKIPVIENLGATLDQFDAIDFSDNEIRKLDGFPLLRRLKTLLVNNNRICRIGEGLDQALPCLTELILTNNSLVELGDLDPLASLKSLTYLSILRNPVTNKKHYRLYVIYKVPQVRVLDFQKVKLKERQEAEKMFKGKRGAQLAKDIARRSKTFNPGAGLPTDKKKGGPSPGDVEAIKNAIANASTLAEVERLKGLLQSGQIPGRERRSGPTDDGEEEMEEDTVTNGS
B2: Synaptotagmin-16 (Homo sapiens), Q17RD7 (parent)
chain: MVLAMASQDVQNFFQPFSSWISRVYEALQQAGDMLSASLVNISKQDSKLSDKLDQDLDNIQIQETYFEDEEQDNDWSQEDANSLFLEVDHFSCCNSDLQDSAQNSSPSLSQHAKDSCSTMSQWPNWASDDRKLPHVLSSIAEEEHHLEKQRSGLQHGFDSQLPGTLETVNGKKQVNSFGDDEELSTSSDSDEEVIKQFEISVSRSQSFRSVTSEKGKQTGLEQKPKFSRSLLTHGEDGTEVSACEDLDGASQRRYSENLSYGEDDHIPAHSQSPCERGDAKHHGTSHQESSVVQSLRRQSTEGSLEMETAFNSRGFEDSYATDSSSMWSPEEQDRTNLQVPSGVSEPISKCGDLDVIFEYRAASQKLTVTIVRAQGLPDKDRSGVNSWQVHVVLLPGKKHRGRTNIQRGPNPVFREKVTFAKLEPRDVAACAVRFRLYAARKMTRERMMGEKLFYLSHLHPEGEMKVTLVLEPRSNISSGGSPLSPSAVSHSDSTSSTQSLSHGGAPELLVGLSYNATTGRLSVEMIKGSHFRNLAVNRAPDTYGKLFLLNSVGQEMSRCKTSIRRGQPNPVYKETFVFQVALFQLSDVTLMISVYNRRTMKRKEMIGWIALGQNSSGEEEQDHWEEMKETKGQQICRWHTLLES
B3: 5'-AMP-activated protein kinase subunit beta-2 (Homo sapiens), O43741 (parent)
chain: MGNTTSDRVSGERHGAKAARSEGAGGHAPGKEHKIMVGSTDDPSVFSLPDSKLPGDKEFVSWQQDLEDSVKPTQQARPTVIRWSEGGKEVFISGSFNNWSTKIPLIKSHNDFVAILDLPEGEHQYKFFVDGQWVHDPSEPVVTSQLGTINNLIHVKKSDFEVFDALKLDSMESSETSCRDLSSSPPGPYGQEMYAFRSEERFKSPPILPPHLLQVILNKDTNISCDPALLPEPNHVMLNHLYALSIKDSVMVLSATHRYKKKYVTTLLYKPI
partner: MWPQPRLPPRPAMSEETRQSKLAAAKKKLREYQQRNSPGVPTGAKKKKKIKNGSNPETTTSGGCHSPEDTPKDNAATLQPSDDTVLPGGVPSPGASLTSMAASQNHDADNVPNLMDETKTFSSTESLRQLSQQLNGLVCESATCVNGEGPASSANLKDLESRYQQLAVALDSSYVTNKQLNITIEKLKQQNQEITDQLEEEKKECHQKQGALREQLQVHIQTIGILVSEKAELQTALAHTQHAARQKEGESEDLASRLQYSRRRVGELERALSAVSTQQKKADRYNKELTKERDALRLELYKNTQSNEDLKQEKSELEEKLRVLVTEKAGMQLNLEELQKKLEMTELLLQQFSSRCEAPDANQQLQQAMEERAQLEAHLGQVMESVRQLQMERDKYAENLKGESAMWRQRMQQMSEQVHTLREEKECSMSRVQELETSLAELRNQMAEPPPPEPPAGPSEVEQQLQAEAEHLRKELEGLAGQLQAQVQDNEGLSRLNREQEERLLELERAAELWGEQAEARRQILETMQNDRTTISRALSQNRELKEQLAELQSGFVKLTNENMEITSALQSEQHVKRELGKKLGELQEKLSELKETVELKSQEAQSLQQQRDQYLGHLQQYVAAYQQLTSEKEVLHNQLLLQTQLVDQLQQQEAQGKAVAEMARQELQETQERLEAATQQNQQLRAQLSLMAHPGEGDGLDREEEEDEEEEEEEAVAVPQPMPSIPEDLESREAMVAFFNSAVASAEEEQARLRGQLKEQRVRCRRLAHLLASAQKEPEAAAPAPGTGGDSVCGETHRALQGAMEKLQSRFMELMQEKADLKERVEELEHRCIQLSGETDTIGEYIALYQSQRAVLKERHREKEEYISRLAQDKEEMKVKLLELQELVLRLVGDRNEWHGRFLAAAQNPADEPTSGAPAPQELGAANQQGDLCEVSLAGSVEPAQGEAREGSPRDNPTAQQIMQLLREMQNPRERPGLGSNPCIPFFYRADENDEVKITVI
B4: Microtubule-associated tumor suppressor candidate 2 (Homo sapiens), Q5JR59-3 (parent)
chain: MGHCCCKPYNCLQCLDKTNESALVKEKELSIELANIRDEVAFHTAKCEKLQKEKEELERRFEDEVKRLGWQQQAELQELEERLQLQFEAEMARLQEEHGDQLLSIRCQHQEQVEDLTASHDAALLEMENNHTVAITILQDDHDHKVQELMSTHELEKKELEENFEKLRLSLQDQVDTLTFQSQSLRDRARRFEEALRKNTEEQLEIALAPYQHLEEDMKSLKQVLEMKNQQIHEQEKKILELEKLAEKNIILEEKIQVLQQQNEDLKARIDQNTVVTRQLSEENANLQEYVEKETQEKKRLSRTNEELLWKLQTGDPTSPIKLSPTSPVYRGSSSGPSSPARVSTTPR
partner: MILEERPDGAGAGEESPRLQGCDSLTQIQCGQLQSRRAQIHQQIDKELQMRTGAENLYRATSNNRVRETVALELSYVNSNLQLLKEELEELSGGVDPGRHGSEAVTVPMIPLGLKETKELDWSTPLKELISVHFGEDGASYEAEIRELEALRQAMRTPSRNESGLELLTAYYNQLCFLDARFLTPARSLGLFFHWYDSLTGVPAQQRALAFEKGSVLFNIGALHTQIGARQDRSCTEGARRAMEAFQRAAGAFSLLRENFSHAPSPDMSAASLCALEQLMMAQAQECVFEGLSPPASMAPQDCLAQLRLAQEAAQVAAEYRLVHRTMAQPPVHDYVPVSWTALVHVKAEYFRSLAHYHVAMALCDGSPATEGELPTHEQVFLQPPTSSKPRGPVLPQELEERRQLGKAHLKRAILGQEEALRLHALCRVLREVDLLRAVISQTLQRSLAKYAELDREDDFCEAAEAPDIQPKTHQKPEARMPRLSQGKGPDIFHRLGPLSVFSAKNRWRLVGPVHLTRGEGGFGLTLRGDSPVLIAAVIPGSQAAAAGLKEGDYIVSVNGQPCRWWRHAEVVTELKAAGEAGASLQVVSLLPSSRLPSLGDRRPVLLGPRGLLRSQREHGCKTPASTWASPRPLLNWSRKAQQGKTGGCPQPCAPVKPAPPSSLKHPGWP
B5: STAM-binding protein (Homo sapiens), O95630 (parent)
chain: MSDHGDVSLPPEDRVRALSQLGSAVEVNEDIPPRRYFRSGVEIIRMASIYSEEGNIEHAFILYNKYITLFIEKLPKHRDYKSAVIPEKKDTVKKLKEIAFPKAEELKAELLKRYTKEYTEYNEEKKKEAEELARNMAIQQELEKEKQRVAQQKQQQLEQEQFHAFEEMIRNQELEKERLKIVQEFGKVDPGLGGPLVPDLEKPSLDVFPTLTVSSIQPSDCHTTVRPAKPPVVDRSLKPGALSNSESIPTIDGLRHVVVPGRLCPQFLQLASANTARGVETCGILCGKLMRNEFTITHVLIPKQSAGSDYCNTENEEELFLIQDQQGLITLGWIHTHPTQTAFLSSVDLHTHCSYQMMLPESVAIVCSPKFQETGFFKLTDHGLEEISSCRQKGFHPHSKDPPLFCSCSHVTVVDRAVTITDLR

Variants of: B1
Details: with ru2b_human SNRPB2, P08579
Sequence of ru2b_human SNRPB2, P08579 (P08579 whole entry): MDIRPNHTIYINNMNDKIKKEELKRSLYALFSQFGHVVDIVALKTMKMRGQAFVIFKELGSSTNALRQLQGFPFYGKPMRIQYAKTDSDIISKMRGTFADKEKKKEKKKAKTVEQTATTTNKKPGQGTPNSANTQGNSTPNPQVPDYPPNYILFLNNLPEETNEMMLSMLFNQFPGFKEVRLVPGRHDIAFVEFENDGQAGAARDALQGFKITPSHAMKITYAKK

effect of a mutation on the interaction	Variant
with no effect	MVKLTAELIEQAAQYTNAVRDRELDLRGYKISVIENLGATLDQFDAIDFSDNEIRKLDGFPLLRRLKTLLVNNNRICRIGEGLDQALPCLTELILTNNSLVELGDLDPLASLKSLTYLSILRNPVTNKKHYRLYVIYKVPQVRVLDFQKVKLKERQEAEKMFKGKRGAQLAKDIARRSKTFNPGAGLPTDKKKGGPSPGDVEAIKNAIANASTLAEVERLKGLLQSGQIPGRERRSGPTDDGEEEMEEDTVTNGS [P32S]
with no effect	MVKLTAELIEQAAQYTNAVRDRELDLRGYKIPVIENLGATLDQFDAIDFSDNEIRKLDGFPLLRRLKTLLVNNNRICRIGEGLDQALPCLTELILTNNNLVELGDLDPLASLKSLTYLSILRNPVTNKKHYRLYVIYKVPQVRVLDFQKVKLKERQEAEKMFKGKRGAQLAKDIARRSKTFNPGAGLPTDKKKGGPSPGDVEAIKNAIANASTLAEVERLKGLLQSGQIPGRERRSGPTDDGEEEMEEDTVTNGS [S99N]

Variants of: B2
Details: with praf1_human RABAC1, Q9UI14
Sequence of praf1_human RABAC1, Q9UI14 (Q9UI14 whole entry): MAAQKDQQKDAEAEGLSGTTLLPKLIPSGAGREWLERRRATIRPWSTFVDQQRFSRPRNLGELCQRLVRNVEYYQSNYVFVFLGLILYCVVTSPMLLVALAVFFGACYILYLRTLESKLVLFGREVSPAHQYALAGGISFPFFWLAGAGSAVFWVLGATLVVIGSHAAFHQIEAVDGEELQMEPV

effect of a mutation on the interaction	Variant
with no effect	A536T
with no effect	R131L

Variants of: B2
Details: with rtn4_human RTN4, Q9NQC3
Sequence of rtn4_human RTN4, Q9NQC3 (Q9NQC3 whole entry): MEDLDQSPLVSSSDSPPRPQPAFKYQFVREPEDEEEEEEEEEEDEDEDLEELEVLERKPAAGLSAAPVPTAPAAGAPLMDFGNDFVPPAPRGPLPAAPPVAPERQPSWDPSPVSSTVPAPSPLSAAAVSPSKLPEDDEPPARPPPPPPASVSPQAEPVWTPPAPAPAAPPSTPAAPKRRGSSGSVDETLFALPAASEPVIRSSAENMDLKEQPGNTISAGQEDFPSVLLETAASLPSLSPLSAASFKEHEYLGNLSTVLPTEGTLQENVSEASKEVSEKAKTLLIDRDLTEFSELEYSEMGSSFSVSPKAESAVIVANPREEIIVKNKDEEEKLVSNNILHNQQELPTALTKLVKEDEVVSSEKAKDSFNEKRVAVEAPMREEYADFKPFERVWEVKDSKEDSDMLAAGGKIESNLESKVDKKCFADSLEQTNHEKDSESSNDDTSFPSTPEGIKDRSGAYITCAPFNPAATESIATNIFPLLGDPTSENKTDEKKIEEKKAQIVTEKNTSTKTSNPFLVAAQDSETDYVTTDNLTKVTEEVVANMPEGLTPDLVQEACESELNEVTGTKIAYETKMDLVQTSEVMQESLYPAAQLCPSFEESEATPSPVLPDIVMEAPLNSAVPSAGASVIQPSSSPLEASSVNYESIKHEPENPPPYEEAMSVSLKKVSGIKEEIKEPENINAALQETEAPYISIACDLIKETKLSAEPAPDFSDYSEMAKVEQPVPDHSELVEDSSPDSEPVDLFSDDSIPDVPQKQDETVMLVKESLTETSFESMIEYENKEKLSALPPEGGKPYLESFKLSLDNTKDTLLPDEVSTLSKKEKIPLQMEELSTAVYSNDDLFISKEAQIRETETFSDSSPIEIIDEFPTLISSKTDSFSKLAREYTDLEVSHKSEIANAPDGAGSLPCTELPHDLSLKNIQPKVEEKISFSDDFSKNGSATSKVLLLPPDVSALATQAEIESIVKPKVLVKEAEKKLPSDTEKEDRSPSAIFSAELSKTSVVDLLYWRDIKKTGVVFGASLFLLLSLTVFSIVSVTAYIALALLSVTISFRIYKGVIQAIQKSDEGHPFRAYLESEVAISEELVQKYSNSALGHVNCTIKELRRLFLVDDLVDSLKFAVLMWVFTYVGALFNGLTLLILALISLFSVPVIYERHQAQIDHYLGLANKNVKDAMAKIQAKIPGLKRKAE

effect of a mutation on the interaction	Variant
with no effect	A536T
with no effect	R131L

Variants of: B2
Details: with atrap_human AGTRAP

effect of a mutation on the interaction	Variant
with no effect	A536T
with no effect	R131L

Variants of: B3
Details: with goga2_human GOLGA2, Q08379

effect of a mutation on the interaction	Variant
with no effect	MGNTTSDRVSGERHGAKAARSEGAGGHAPGKEHKIMVGSTDDPSVFSLPDSKLPEDKEFVSWQQDLEDSVKPTQQARPTVIRWSEGGKEVFISGSFNNWSTKIPLIKSHNDFVAILDLPEGEHQYKFFVDGQWVHDPSEPVVTSQLGTINNLIHVKKSDFEVFDALKLDSMESSETSCRDLSSSPPGPYGQEMYAFRSEERFKSPPILPPHLLQVILNKDTNISCDPALLPEPNHVMLNHLYALSIKDSVMVLSATHRYKKKYVTTLLYKPI [G55E]

Variants of: B4
Details: with rhpn1_human RHPN1, Q8TCX5

effect of a mutation on the interaction	Variant
with no effect	MGHCCCKPYNCLQCLDKTNESALVKEKELSIELANIRDEVAFHTAKCEKLQKEKEELERRFEDEVKRLGWQQQAELQELEERLQLQFEVEMARLQEEHGDQLLSIRCQHQEQVEDLTASHDAALLEMENNHTVAITILQDDHDHKVQELMSTHELEKKELEENFEKLRLSLQDQVDTLTFQSQSLRDRARRFEEALRKNTEEQLEIALAPYQHLEEDMKSLKQVLEMKNQQIHEQEKKILELEKLAEKNIILEEKIQVLQQQNEDLKARIDQNTVVTRQLSEENANLQEYVEKETQEKKRLSRTNEELLWKLQTGDPTSPIKLSPTSPVYRGSSSGPSSPARVSTTPR [A89V]

Variants of: B5
Details: with grb2_human GRB2, P62993

effect of a mutation on the interaction	Variant
disrupting interaction strength	MSDHGDVSLPPEDRVRALSQLGSAVEVNEDIPPRRYFRSGVEIIRMASIYSEEGNIEHAFILYNKYITLFIEKLPKHRDYKSAVIPEKKDTVKKLKEIAFPKAEELKAELLKRYTKEYTEYNEEKKKEAEELARNMAIQQELEKEKQRVAQQKQQQLEQEQFHAFEKMIRNQELEKERLKIVQEFGKVDPGLGGPLVPDLEKPSLDVFPTLTVSSIQPSDCHTTVRPAKPPVVDRSLKPGALSNSESIPTIDGLRHVVVPGRLCPQFLQLASANTARGVETCGILCGKLMRNEFTITHVLIPKQSAGSDYCNTENEEELFLIQDQQGLITLGWIHTHPTQTAFLSSVDLHTHCSYQMMLPESVAIVCSPKFQETGFFKLTDHGLEEISSCRQKGFHPHSKDPPLFCSCSHVTVVDRAVTITDLR [E167K]
with no effect	MSDHGDVSLPPEDRVRALSQLGSAVEVNEDIPPRRYFRSGVEIIRMASIYSEEGNIEHAFILYNKYITLFIEKLPKHRDYKSAVIPEKKDTVKKLKEIAFPKAEELKAELLKRYTKEYTEYNEEKKKEAEELARNMAIQQELEKEKQRVAQQKQQQLEQEQFHAFEEMIRNQELEKERLKIVQEFGKVDPGLGGPLVPDLEKPSLDVFPTLTVSSIQPSDCHTTVRPAKPPVVDRSLKPGALSNSESIPTIDGLHHVVVPGRLCPQFLQLASANTARGVETCGILCGKLMRNEFTITHVLIPKQSAGSDYCNTENEEELFLIQDQQGLITLGWIHTHPTQTAFLSSVDLHTHCSYQMMLPESVAIVCSPKFQETGFFKLTDHGLEEISSCRQKGFHPHSKDPPLFCSCSHVTVVDRAVTITDLR [R255H]

Variants of: B5
Details: with stam2_human STAM2, O75886

effect of a mutation on the interaction	Variant
with no effect	MSDHGDVSLPPEDRVRALSQLGSAVEVNEDIPPRRYFRSGVEIIRMASIYSEEGNIEHAFILYNKYITLFIEKLPKHRDYKSAVIPEKKDTVKKLKEIAFPKAEELKAELLKRYTKEYTEYNEEKKKEAEELARNMAIQQELEKEKQRVAQQKQQQLEQEQFHAFEEMIRNQELEKERLKIVQEFGKVDPGLGGPLVPDLEKPSLDVFPTLTVSSIQPSDCHTTVRPAKPPVVDRSLKPGALSNSESIPTIDGLHHVVVPGRLCPQFLQLASANTARGVETCGILCGKLMRNEFTITHVLIPKQSAGSDYCNTENEEELFLIQDQQGLITLGWIHTHPTQTAFLSSVDLHTHCSYQMMLPESVAIVCSPKFQETGFFKLTDHGLEEISSCRQKGFHPHSKDPPLFCSCSHVTVVDRAVTITDLR [R255H]
